Measurements reported in publication PMC10764798, “A natural biogenic nanozyme for scavenging superoxide radicals” (Nature Communications, 2024).

Molecular target: the molecule itself
Assay: negative-stain TEM and DLS; purified biomineralized ferritin, 0.1 mg/mL; stained with 1% uranyl acetate, JEM-1400 80 kV TEM; DLS at 25 °C; assembly of the subunits into the protein cage

| Protein | binding result |
| --- | --- |
| Non-heme ferritin from Enterobacteriaceae (E. coli FTn) (natural protein, UniProt P0A998 1-165, looked up, Carries an inorganic iron core; also called EcFTn; source: E. coli BL21(DE3), pet22b, ferrous salt added to the medium (biomineralized), purified; copies: 24) MLKPEMIEKLNEQMNLELYSSLLYQQMSAWCSYHTFEGAAAFLRRHAQEEMTHMQRLFDYLTDTGNLPRINTVESPFAEYSSLDELFQETYKHEQLITQKINELAHAAMTNQDYPTFNFLQWYVSEQHEEEKLFKSIIDKLSLAGKSGEGLYFIDKELSTLDTQN | binds |
| Bacterioferritin from Escherichia coli str. K-12 substr. MG1655 (natural protein, Carries an inorganic iron core; also called EcBfr; Bfr; source: E. coli BL21(DE3), pet22b, ferrous salt added to the medium (biomineralized), purified; copies: 24) not shown | binds |
| DNA protection protein from Sulfolobus solfataricus (natural protein, UniProt P95855 1-188, looked up, Carries an inorganic iron core; also called ssDps; S. solfataricus Dps; source: E. coli BL21(DE3), pet22b, ferrous salt added to the medium (biomineralized), purified; copies: 12) MQEKPQEPKVVGVEILEKSGLDIKKLVDKLVKATAAEFTTYYYYTILRMHLTGMEGEGLKEIAEDARLEDRLHFELMTQRIYELGGGLPRDIRQLADISACSDAYLPENWKDPKEILKVLLEAEQCAIRTWKEVCDMTYGKDPRTYDLAQRILQEEIEHEAWFLELLYGRPSGHFRRSSPGNAPYSKK | binds |
